Experimental data published in patent publication US6649593B1, “Modulators of SREBP processing” (priority 1999, dated 2003).
Where two headings read alike, the source gives them in different places. Non-standard residues stand in square brackets, D forms with d. Residues, ends and D or L forms follow the SMILES beside them. *: point of attachment. Sta = CC(C)C[C@H](N)[C@@H](O)CC(=O)O; Isovaleryl = CC(C)CC(=O)*

Key:
Ac-Arg-Ser-Leu-Lys-MCA = test system: T1, Ac-Arg-Ser-Leu-Lys-MCA
T1 sequence: XSLX

[1] = test system: T2, Ac-Val-Phe-Arg-Ser-Arg-Arg-MCA
T2 sequence: XFRSRX

[2] = test system: T3, Ac-Ser-Gly-Ser-Gly-Arg-Ser-Val-Leu-MCA
T3 sequence: XGSGRSVX

[3] = test system: T4, Ac-Val-Phe-Arg-Ser-Leu-Lys-MCA
T4 sequence: XFRSLX

Boc-Arg-Val-Arg-Arg-MCA = test system: T5, Boc-Arg-Val-Arg-Arg-MCA
T5 sequence: XVRX

[4] = test system: T6, Ac-Val-Phe-Ala-Ser-Leu-Lys-MCA
T6 sequence: XFASLX

[5] = test system: T7, Ac-Ser-Gly-Arg-Ser-Val-Leu-MCA
T7 sequence: XGRSVX

Ac-Arg-Ser-Val-Leu-MCA = test system: T8, Ac-Arg-Ser-Val-Leu-MCA
T8 sequence: XSVX

purified S1P(187-983) = target: T9, purified S1P(187-983) (Cricetulus griseus, UniProt Q9Z2A8); format: biochemical, hamster; details: for Relative Activity (comparative cleavage of fluorogenic synthetic peptidyl substrates): cleavage by purified S1P-C(187-983), MCA-peptide 100 μM, pH 8.0, 37° C.; for inhibition of S1P at extremely high concentrations: extremely high concentrations of inhibitor
T9 construct: 1.5-5 μg of purified S1P(187-983); made in house; host or cells: SRD-12B cells (CHO-derived) stably transfected with pCMV-S1P(983)-Myc-His (TR-3117, 'S1P(983) cells'); The protein was secreted into serum-free medium and purified on Ni-NTA agarose
T9 sequence (Q9Z2A8 187-983): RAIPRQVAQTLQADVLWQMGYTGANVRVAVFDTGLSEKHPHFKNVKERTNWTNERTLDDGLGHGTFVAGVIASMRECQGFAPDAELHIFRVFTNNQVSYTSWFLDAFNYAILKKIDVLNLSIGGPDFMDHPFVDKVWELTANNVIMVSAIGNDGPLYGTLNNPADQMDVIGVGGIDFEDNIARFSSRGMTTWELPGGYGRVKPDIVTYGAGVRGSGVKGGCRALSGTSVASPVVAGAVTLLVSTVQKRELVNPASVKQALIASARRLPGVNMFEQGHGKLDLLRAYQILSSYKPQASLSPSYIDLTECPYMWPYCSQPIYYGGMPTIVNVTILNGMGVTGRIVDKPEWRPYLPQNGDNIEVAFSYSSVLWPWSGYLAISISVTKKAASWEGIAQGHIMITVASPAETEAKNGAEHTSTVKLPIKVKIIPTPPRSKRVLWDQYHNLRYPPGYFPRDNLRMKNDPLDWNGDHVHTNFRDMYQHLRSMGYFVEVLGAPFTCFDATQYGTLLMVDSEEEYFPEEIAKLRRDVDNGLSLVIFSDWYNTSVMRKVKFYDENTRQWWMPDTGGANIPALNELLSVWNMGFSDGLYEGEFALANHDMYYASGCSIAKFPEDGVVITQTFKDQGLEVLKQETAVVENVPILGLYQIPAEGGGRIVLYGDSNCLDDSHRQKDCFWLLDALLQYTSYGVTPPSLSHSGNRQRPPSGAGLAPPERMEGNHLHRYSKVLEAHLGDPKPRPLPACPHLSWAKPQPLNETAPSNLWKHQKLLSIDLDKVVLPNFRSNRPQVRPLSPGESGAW
Experimental: Stock cultures of S1P(983) cells were grown in 850-cm^2 roller bottles in medium B supplemented with 5% (v/v) newborn calf lipoprotein-deficient serum and 500 μg/mL G418. On day 0, 10 roller bottles of S1P(983) cells were seeded at a density of ˜4×10^7 cells/roller bottles. On day 2, the medium was replaced with 100 mL of serum-free medium CHO-S-SFMII. The medium from each roller bottle was collected daily from day 3 to day 7. The collected medium was pooled, filtered through 0.45-μm cellulose acetate low-protein binding membrane filter units (Corning Costar) and stored at 4° C. for 0 to 4 days. On day 7, the filtered medium was adjusted to pH 8.0 by addition of tris-HCl at a final concentration of 25 mM, and then loaded onto four parallel 5-mL Ni-NTA agarose columns (Qiagen, Inc., Chatsworth, Calif.) equilibrated with 20 mL of buffer B (25 mM tris-HCl at pH 8.0, 10% (v/v) glycerol, 1 mM CaCl2). The chromatography was performed at 4° C. via gravity at ˜100 mL/hr. The column was washed with 40 mL of buffer B supplemented with 1M NaCl followed by 20 mL of buffer B without NaCl. […] The eluate was concentrated with a Centriprep 30 filter followed by a Centricon 30 filter (Amicon, Inc.).
S1P activity was measured fluorometrically with MCA-conjugated peptidyl substrates. Each reaction was carried out in 0.2 mL of assay buffer (25 mM tris, 25 mM Mes, 25 mM acetic acid, and 1 mM CaCl2 adjusted to pH 8.0 with concentrated NaOH). Reactions contained MCA-peptide (final concentration 100 μM, added in 2 μl DMSO) and 1.5-5 μg of purified S1P(187-983). After incubation for 0.5-5 h at 37° C., each reaction was terminated by addition of 1 mL of ice-cold 5 mM sodium EDTA. The liberated 7-amino-4-methylcoumarin (AMC) was measured with a Perkin-Elmer LS-30 luminescence spectrometer (360 nm excitation, 460 nm emission). A standard curve of fluorescence intensity was generated with different concentrations of AMC (Promega).

[6] = incubated with substrate Ac-VFRSLK-MCA

Molecule	Relative Activity (comparative cleavage of fluorogenic synthetic peptidyl substrates) (purified S1P(187-983))	inhibition of S1P (purified S1P(187-983); [6])	other results
purified S1P(187-983), secreted form from S1P(983)-Myc-His cells (hamster Site-1 protease)			Relative Activity (cleavage of fluorogenic MCA substrate, release of AMC) (relative activity) (Ac-Arg-Ser-Leu-Lys-MCA): 0.47; Relative Activity (cleavage of fluorogenic MCA substrate, release of AMC) (relative activity) [1]: < 0.1; Relative Activity (cleavage of fluorogenic MCA substrate, release of AMC) (relative activity) [2]: < 0.1; Relative Activity (cleavage of fluorogenic MCA substrate, release of AMC) (relative activity) [3]: 1; Relative Activity (cleavage of fluorogenic MCA substrate, release of AMC) (relative activity) (Boc-Arg-Val-Arg-Arg-MCA): < 0.1; Relative Activity (cleavage of fluorogenic MCA substrate, release of AMC) (relative activity) [4]: < 0.1; Relative Activity (cleavage of fluorogenic MCA substrate, release of AMC) (relative activity) [5]: < 0.1; Relative Activity (cleavage of fluorogenic MCA substrate, release of AMC) (relative activity) (Ac-Arg-Ser-Val-Leu-MCA): < 0.1
Cl.NCCc1ccc(S(=O)(=O)F)cc1 [Pefabloc®]			inhibition of S1P at high concentrations (purified S1P(187-983); incubated with substrate Ac-VFRSLK-MCA, high concentrations of inhibitor): did inhibit S1P
Ac-Val-Phe-Arg-Ser-Leu-Lys-MCA [Ac-VFRSLK-MCA, fluorogenic MCA-conjugated peptidyl substrate]	1.0		
O[C@H](CS)[C@H](O)CS (racemic) [dithiothreitol]			inhibition of S1P at extremely high concentrations (purified S1P(187-983); [6]): also inhibited S1P
Ac-Val-Phe-Ala-Ser-Leu-Lys-MCA [Ac-VFASLK-MCA, fluorogenic MCA-conjugated peptidyl substrate]	<0.1		
Ac-Val-Phe-Arg-Ser-Arg-Arg-MCA [Ac-VFRSRR-MCA, fluorogenic MCA-conjugated peptidyl substrate]	<0.1		
c1cnc2c(c1)ccc1cccnc12 [1,10-phenanthroline]			inhibition of S1P at extremely high concentrations (purified S1P(187-983); [6]): also inhibited S1P
N-acetyl-leucinal-leucinal-norleucinal [ALLN]		resistant	
aprotinin		resistant	
O=S(=O)(F)Cc1ccccc1 [PMSF, phenylmethylsulfonyl fluoride]		not significantly inhibited	
CC(=O)N[C@@H](CC(C)C)C(=O)N[C@@H](CC(C)C)C(=O)N[C@H](C=O)CCCNC(=N)N [leupeptin]		resistant	
O=C(O)CN(CCOCCOCCN(CC(=O)O)CC(=O)O)CC(=O)O [EGTA]			inhibition of S1P at extremely high concentrations (purified S1P(187-983); [6]): also inhibited S1P
Ac-Arg-Ser-Val-Leu-MCA [Ac-RSVL-MCA, fluorogenic MCA-conjugated peptidyl substrate]	<0.1		
Boc-Arg-Val-Arg-Arg-MCA [Boc-RVRR-MCA, fluorogenic MCA-conjugated peptidyl substrate]	<0.1		
O=C(O)CN(CCN(CC(=O)O)CC(=O)O)CC(=O)O [EDTA]			inhibition of S1P (purified S1P(187-983)): partially inhibited
N=C(N)c1ccc(CS(=O)(=O)F)cc1 [APMSF, (4-amindinophenyl)-methanesulfonyl fluoride]		not significantly inhibited	
Ac-Ser-Gly-Arg-Ser-Val-Leu-MCA [Ac-SGRSVL-MCA, fluorogenic MCA-conjugated peptidyl substrate]	<0.1		
CC(C)CC(=O)N[C@H](C(=O)N[C@H](C(=O)N[C@@H](CC(C)C)[C@@H](O)CC(=O)N[C@@H](C)C(=O)N[C@@H](CC(C)C)[C@@H](O)CC(=O)O)C(C)C)C(C)C [pepstatin] (Isovaleryl-VV[Sta]A[Sta]-OH)		resistant	
Ac-Arg-Ser-Leu-Lys-MCA [Ac-RSLK-MCA, fluorogenic MCA-conjugated peptidyl substrate]	0.47		
Ac-Ser-Gly-Ser-Gly-Arg-Ser-Val-Leu-MCA [Ac-SGSGRSVL-MCA, fluorogenic MCA-conjugated peptidyl substrate]	<0.1		
